Data as given in patent publication US12281340B2, “Method of producing N-acyl-amino group-containing compound” (AJINOMOTO CO., INC., priority 2018, dated 2025).
Each block holds one molecule with its values, some of them ahead of it.

Legend:
[1] = Synthesis of N-caprinoylamino acid using purified acylamino acid synthetase, UPLC-MS detection; format: biochemical; set-up: key: +: Detected; −: Not detected; conditions: +ATP
Description: 2.0 mL of a reaction solution containing 50 mM Tris-HCl, 5 mM amino acid, 5 mM sodium caprate, 10 mM ATP, 10 mM MgCl2, 1 mM DTT, 50 μg of the purified enzyme, pH 8.0 was incubated at 25° C. for 24 hours. After completion of the reaction, 0.8 mL of a reaction stop solution (1% (v/v) phosphoric acid, 75% (v/v) methanol) was added, and the mixture was filtrated through a filter followed by being subjected to the UPLC-MS analysis to detect a signal of a molecular weight corresponding to an N-caprinoyl amino acid.
A UPLC-MS analysis condition is as follows.
Apparatus: ACQUITY UPLC (Waters)
• Column: ACQUITY UPLC BEH C18 1.7 2.1×100 mm Column (Waters) • Mobile phase A: 0.1% formic acid • Mobile phase B: acetonitrile Gradient
• Flow rate: 0.6 mL/min • Injection amount: 2 μL • Column temperature: 40° C. • Ionization method: ESI-negative
As a result of the UPLC-MS analysis, the signal of the molecular weight corresponding to the N-caprinoyl amino acid was confirmed in the reaction solution combining the enzyme and the amino acid shown in Table 3 below.

[2] = Synthesis of N-caprinoyl-amino acid derivative, N-caprinoyl-D-amino acid and N-caprinoyl-peptide using purified acylamino acid synthetase, UPLC-MS detection; format: biochemical; set-up: key: +: Detected; −: Not detected; conditions: +ATP
Description: 0.2 mL of a reaction solution containing 50 mM Tris-HCl, 5 mM amino acid derivative or D-amino acid or peptide, 5 mM sodium caprate, 10 mM ATP, 10 mM MgCl2, 1 mM DTT, 50 μg/mL of the purified enzyme, pH 8.0 was incubated at 25° C. for 24 hours. After completion of the reaction, 0.8 mL of the reaction stop solution (1% (v/v) phosphoric acid, 75% (v/v) methanol) was added, and the mixture was filtrated through the filter followed by being subjected to the UPLC-MS analysis to detect a signal of a molecular weight corresponding to an N-caprinoyl-amino acid derivative, an N-caprinoyl-amino acid or an N-caprinoyl-peptide. A condition for the UPLC-MS analysis is as described in Example 2.
As a result of the UPLC-MS analysis, the signal of the molecular weight corresponding to the N-caprinoyl-amino acid derivative, or N-caprinoyl-amino acid, or N-caprinoyl-peptide was confirmed in the reaction solution containing the enzyme in combination with the amino acid derivative or the D-amino acid or the peptide shown in Table 4 below.

[3] = substrates GABA and sodium caprate
[4] = substrates Gly and sodium caprate
[5] = substrates L-Ala and sodium caprate
[6] = substrates L-Arg and sodium caprate
[7] = substrates L-Asn and sodium caprate
[8] = substrates L-Asp and sodium caprate
[9] = substrates L-Cys and sodium caprate
[10] = substrates L-Gln and sodium caprate
[11] = substrates L-Glu and sodium caprate
[12] = substrates L-His and sodium caprate
[13] = substrates L-Ile and sodium caprate
[14] = substrates L-Leu and sodium caprate
[15] = substrates L-Lys and sodium caprate
[16] = substrates L-Met and sodium caprate
[17] = substrates L-Phe and sodium caprate
[18] = substrates L-Pro and sodium caprate
[19] = substrates L-Ser and sodium caprate
[20] = substrates L-Thr and sodium caprate
[21] = substrates L-Trp and sodium caprate
[22] = substrates L-Tyr and sodium caprate
[23] = substrates L-Val and sodium caprate
[24] = substrates β-Ala and sodium caprate
[25] = substrates Carnosine and sodium caprate
[26] = substrates D-Ala and sodium caprate
[27] = substrates D-Asp and sodium caprate
[28] = substrates D-Cys and sodium caprate
[29] = substrates D-Glu and sodium caprate
[30] = substrates D-Ile and sodium caprate
[31] = substrates D-Lys and sodium caprate
[32] = substrates L-Asp-L-Phe and sodium caprate
[33] = substrates L-Gly-L-Gly and sodium caprate
[34] = substrates Sarcosine and sodium caprate
[35] = substrates Taurine and sodium caprate

signal of molecular weight corresponding to N-caprinoyl amino acid [1, 3]: + | signal of molecular weight corresponding to N-caprinoyl amino acid [1, 4]: + | signal of molecular weight corresponding to N-caprinoyl amino acid [1, 5]: + | signal of molecular weight corresponding to N-caprinoyl amino acid [1, 6]: + | signal of molecular weight corresponding to N-caprinoyl amino acid [1, 7]: + | signal of molecular weight corresponding to N-caprinoyl amino acid [1, 8]: + | signal of molecular weight corresponding to N-caprinoyl amino acid [1, 9]: + | signal of molecular weight corresponding to N-caprinoyl amino acid [1, 10]: + | signal of molecular weight corresponding to N-caprinoyl amino acid [1, 11]: + | signal of molecular weight corresponding to N-caprinoyl amino acid [1, 12]: − | signal of molecular weight corresponding to N-caprinoyl amino acid [1, 13]: + | signal of molecular weight corresponding to N-caprinoyl amino acid [1, 14]: + | signal of molecular weight corresponding to N-caprinoyl amino acid [1, 15]: + | signal of molecular weight corresponding to N-caprinoyl amino acid [1, 16]: + | signal of molecular weight corresponding to N-caprinoyl amino acid [1, 17]: + | signal of molecular weight corresponding to N-caprinoyl amino acid [1, 18]: − | signal of molecular weight corresponding to N-caprinoyl amino acid [1, 19]: + | signal of molecular weight corresponding to N-caprinoyl amino acid [1, 20]: + | signal of molecular weight corresponding to N-caprinoyl amino acid [1, 21]: + | signal of molecular weight corresponding to N-caprinoyl amino acid [1, 22]: + | signal of molecular weight corresponding to N-caprinoyl amino acid [1, 23]: + | signal of molecular weight corresponding to N-caprinoyl amino acid [1, 24]: + | signal of molecular weight corresponding to N-caprinoyl compound [2, 25]: + | signal of molecular weight corresponding to N-caprinoyl compound [2, 26]: + | signal of molecular weight corresponding to N-caprinoyl compound [2, 27]: + | signal of molecular weight corresponding to N-caprinoyl compound [2, 28]: + | signal of molecular weight corresponding to N-caprinoyl compound [2, 29]: + | signal of molecular weight corresponding to N-caprinoyl compound [2, 30]: + | signal of molecular weight corresponding to N-caprinoyl compound [2, 31]: + | signal of molecular weight corresponding to N-caprinoyl compound [2, 32]: − | signal of molecular weight corresponding to N-caprinoyl compound [2, 33]: + | signal of molecular weight corresponding to N-caprinoyl compound [2, 34]: − | signal of molecular weight corresponding to N-caprinoyl compound [2, 35]: +
B1: PaHP: hypothetical protein from Pantoea agglomerans (PaaK protein), His-tagged (protein)
chain: MRSYDHQPTFVEQHNRISIISGSTFRDYEHFARSVPISKLVRMHEVEGKQGDDSSANLPSLIGATSGTSGKMKPVRIQLKNGGCSVSASERNFIYHLRERRVFFPQDVVGNLFTINLFSTLHQSACDIVKYCQGSIVPVGDIALLTRDHFLFLQEVELSVLFGVPATIIQFVEAMLSNKVPIGIKKIVFTGETLRPSQAEWLRSRLGRTLSIVGLYGLSECGFLGLTDAQDCDEYTLFNDDFFFEQDPVHGLLVTSLDPSAKNRLIRYPTGDGVELTFHNKQLKMRIMARKDLLFNFVGNLISVESIAATVAESIPESFIQLVIRSEKGQQELLLVNVAGKNLQTQQLELIAQKLRARPELAEVYQKQRGRLEVHSVAENAFVLSARGKHQFVVDERE
modifications: His-tag; Pantoea agglomerans
notes: hypothetical protein from Pantoea agglomerans (PaaK protein), His-tagged

signal of molecular weight corresponding to N-caprinoyl amino acid [1, 3]: + | signal of molecular weight corresponding to N-caprinoyl amino acid [1, 4]: + | signal of molecular weight corresponding to N-caprinoyl amino acid [1, 5]: + | signal of molecular weight corresponding to N-caprinoyl amino acid [1, 6]: + | signal of molecular weight corresponding to N-caprinoyl amino acid [1, 7]: + | signal of molecular weight corresponding to N-caprinoyl amino acid [1, 8]: + | signal of molecular weight corresponding to N-caprinoyl amino acid [1, 9]: + | signal of molecular weight corresponding to N-caprinoyl amino acid [1, 10]: + | signal of molecular weight corresponding to N-caprinoyl amino acid [1, 11]: + | signal of molecular weight corresponding to N-caprinoyl amino acid [1, 12]: + | signal of molecular weight corresponding to N-caprinoyl amino acid [1, 13]: + | signal of molecular weight corresponding to N-caprinoyl amino acid [1, 14]: + | signal of molecular weight corresponding to N-caprinoyl amino acid [1, 15]: + | signal of molecular weight corresponding to N-caprinoyl amino acid [1, 16]: + | signal of molecular weight corresponding to N-caprinoyl amino acid [1, 17]: + | signal of molecular weight corresponding to N-caprinoyl amino acid [1, 18]: + | signal of molecular weight corresponding to N-caprinoyl amino acid [1, 19]: + | signal of molecular weight corresponding to N-caprinoyl amino acid [1, 20]: + | signal of molecular weight corresponding to N-caprinoyl amino acid [1, 21]: + | signal of molecular weight corresponding to N-caprinoyl amino acid [1, 22]: + | signal of molecular weight corresponding to N-caprinoyl amino acid [1, 23]: + | signal of molecular weight corresponding to N-caprinoyl amino acid [1, 24]: + | signal of molecular weight corresponding to N-caprinoyl compound [2, 25]: + | signal of molecular weight corresponding to N-caprinoyl compound [2, 26]: + | signal of molecular weight corresponding to N-caprinoyl compound [2, 27]: + | signal of molecular weight corresponding to N-caprinoyl compound [2, 28]: + | signal of molecular weight corresponding to N-caprinoyl compound [2, 29]: + | signal of molecular weight corresponding to N-caprinoyl compound [2, 30]: + | signal of molecular weight corresponding to N-caprinoyl compound [2, 31]: + | signal of molecular weight corresponding to N-caprinoyl compound [2, 32]: + | signal of molecular weight corresponding to N-caprinoyl compound [2, 33]: + | signal of molecular weight corresponding to N-caprinoyl compound [2, 34]: + | signal of molecular weight corresponding to N-caprinoyl compound [2, 35]: +
B2: PsIAAL: indoleacetate-lysine synthetase from Pseudomonas savastanoi (PaaK protein), His-tagged (protein, listed as Pseudomonas savastanoi)
chain: MTAYDMEKEWSRISITAAKIHQNNDFEGFTYQDFRTHVPIMDKDGFAAQTERCLERNERNCLIGFTSGTSGNIKRCYYYYDCEVDEDSSLSNVFRSNGFILPGDRCANLFTINLFSALNNTITMMAGNCGAHVVSVGDITLVTKSHFEALNSIKLNVLLGVPSTILQFINAMQHNGVHINIEKVVFTGESLKTFQKKIIRQAFGEQVSIVGVYGSSEGGILGFTNSPCHTEYEFLSDKYFIEKEGDSILITSLTRENFTPLLRYRLGDTATLSMKGDKLYLTDIQREDMSFNFMGNLIGLGIIQQTIKQTLGRSLEIQVHLSVTEERKELVTVFVQASEVDEDERVRIETAIADIPDIKEAYQKNQGTVSVLRKDARDYAVSERGKMLYIIDRRN
modifications: His-tag
notes: indoleacetate-lysine synthetase from Pseudomonas savastanoi (PaaK protein), His-tagged
